Reference: patent US20220380801A1, “TRIPARTITE SYSTEMS FOR PROTEIN DIMERIZATION AND METHODS OF USE” (priority 2019, published 2022)

Legend:
[1] = test system: NanoLuc-PEST reporter in HEK293 cells; experiment: Transcriptional regulation assay (split transcription factor), NanoLuc-PEST reporter; format: cell-based, human
Text: The iDimerize regulated transcription system (Takara) was used to test the ability of PRSIM-based CIDs to regulate gene expression. […] The DBD and AD are separately fused to the two protein components of a CID such that, only in the presence of the small molecule inducer, the AD is brought into close proximity to the DBD, recruiting the transcription machinery to a promoter harbouring the DBD recognition sites. The iDimerize regulated transcription system (Takara) provides two vectors, pHet-Act1-2 and pZFHD1-Luciferase. […]
All transcriptional regulation assays were performed in adherent HEK293 cells cultured in 384-well plates. Cells enzymatically dissociated from a tissue culture flask were counted and plated at 7.5×10^3 cells/well in a 384-well plate. […] On day 3, wells were treated with different concentrations of either A/C heterodimeriser (for the FRB:FKBP12 control), simeprevir or with vehicle control, and 24 hours later luminescence was quantified with an Envision plate reader immediately following addition of SteadyGlo luciferase substrate (Promega) or Nano-Glo Vivazine luciferase substrate (Promega). Alternatively, reverse transfections were carried out on Day 1, addition of dimeriser on Day 2 and luminescence quantified 24 hours later on Day 3. […]

HCV NS3/4A PR K136D = experiment: Biacore 8K binding kinetics, mutant protease to PRSIM_23; set-up: species or system Hepatitis C virus subtype 1a
Description: (§1) The scFv and Tn3 PRSIM binding molecules were covalently immobilised to a CM5 chip surface using standard amine coupling techniques at a concentration of 1 μg/ml in 10 mM sodium acetate pH 4.5.
(§2) The HCV NS3/4A PR (S139A), or BSA control, was diluted 1:4 (1.25-20 nM)±10 nM simeprevir in 10 mM Hepes pH 7.4, 150 mM NaCl, 0.05% Surfactant P20, 0.01% DMSO, ensuring constant simeprevir and DMSO concentration. The samples were flowed over the chip at 50 μl/min using single cycle kinetics, with 120 sec association and 600 sec dissociation. The chip surface was regenerated with two 20 sec pulses of 10 mM Glycine-HCl pH 3.0. The final sensorgrams were analysed using the Biacore 8K Evaluation Software and the affinity constant KD was determined using a 1:1 binding model. The same method was used for measuring the affinity of the HCV NS3/4A PR mutants for PRSIM_23 with minor deviations. The mutants were diluted 1:4 (2.5-40 nM)±simeprevir in 10 mM Hepes pH 7.4, 150 mM NaCl, 0.05% Surfactant P20, 0.08% DMSO, ensuring constant simeprevir and DMSO concentration. The samples were flowed over the chip at 50 μl/min using single cycle kinetics, with 180 sec association and 600 sec dissociation.

HCV NS3/4A PR K136N = experiment: as above; set-up: species or system Hepatitis C virus subtype 1a
Description: as §1, §2

HCV NS3/4A PR D168E = experiment: as above; set-up: species or system Hepatitis C virus subtype 1a; settings: 20 nM simeprevir
Description: as §1, §2

B1: PRSIM_23: Tn3 protein specific for HCV NS3/4A PR (S139A):simeprevir complex, SEQ ID NO: 5 (protein)
chain: RLDAPSQIEVKDVTDTTALITWVDPRYDDIWWFELTYGIKDVPGDRTTIKLYLNDPYYSIGNLKPDTEYEVSLISYTGDSYSRSGSNPAKITFKTGL
modifications: PRSIM_23
fold change of NanoLuc-PEST expression ([1]; one copy of the DBD fusion partner): 55 fold
fold change of NanoLuc-PEST expression ([1]; three copies of the DBD fusion partner): 100 fold
decrease in affinity for PRSIM_23 compared to ‘Wt’ (HCV NS3/4A PR K136D; K136D versus ‘WT’ (S139A)): 6-7 fold
Rmax (HCV NS3/4A PR K136D; K136D, 800 nM simeprevir): 168 RUs
ka (HCV NS3/4A PR K136D; K136D, 800 nM simeprevir): 1.69e+10 M⁻¹ s⁻¹
kd (HCV NS3/4A PR K136D; K136D, 800 nM simeprevir): 373 s⁻¹
decrease in affinity for PRSIM_23 compared to ‘Wt’ (HCV NS3/4A PR K136N; K136N versus ‘WT’ (S139A)): 6-7 fold
Rmax (HCV NS3/4A PR K136N; K136N, 40 nM simeprevir): 198 RUs
ka (HCV NS3/4A PR K136N; K136N, 40 nM simeprevir): 5.31e+08 M⁻¹ s⁻¹
kd (HCV NS3/4A PR K136N; K136N, 40 nM simeprevir): 20.4 s⁻¹
Rmax (HCV NS3/4A PR D168E): 199 RUs
ka (HCV NS3/4A PR D168E): 1.47e+09 M⁻¹ s⁻¹
kd (HCV NS3/4A PR D168E): 21.4 s⁻¹
